We go through ten molecules from patent US20090297535A1 (Ablynx, published 2009).

Assay [1] concerns the target T1, recombinant human IL6 (human, UniProt P05231 30-212). The assay is described as follows: cell-based or functional assay.
Assay [2] addresses T1, recombinant human IL6. The assay is described as follows: SPR, Biacore 3000; IL6 amine-coupled on CM5 chip, periplasmic extract injected. Here is the method: Off-rate analysis of Nanobodies binding to IL6 was done by surface plasmon resonance on a Biacore 3000 instrument. Recombinant human IL6 was covalently bound to a CM5 sensor chip via amine coupling at a density of ˜500 RU. Remaining reactive groups were inactivated. Periplasmic extracts prepared from E. coli cells expressing anti-IL6 Nanobodies were diluted 10 or 15-fold and injected for 4 min to allow for binding to IL6 immobilized on the chip. Buffer without Nanobody was sent over the chip for 30 min to allow for spontaneous dissociation of bound Nanobody. The dissociation phase was used to calculate the koff values for each individual Nanobody (table B-1).
Background: In SPR one partner is held on a chip, and binding of the other changes the refractive index at the surface.

In assay [3] the target is T1, recombinant human IL6. Briefly: cell-based or functional assay. This is another data set of the same source.
Assay [4] deals with T1, recombinant human IL6. Briefly: Alphascreen competition: Nanobody titrated against 3 nM biotinylated human IL6; blocked partner IL6R (1 nM) captured on acceptor beads coated with anti-IL6R MAb BN-12; streptavidin donor beads; readout cps. Here is the method:
Purified samples of Nanobodies PMP6B6, PMP7G5, PMP7G9 and PMP7G4 were analyzed in Alphascreen for their ability to inhibit the interaction between IL6 and IL6R. In this assay, various concentrations of anti-IL6 Nanobodies ranging from 1 uM to 10 pM were incubated with 3 nM biotinylated human IL6 for 15 min in a 384-wells plate. Subsequently a mixture of IL6R (1 nM) and acceptor beads (20 ug/ml) coated with anti-IL6R MAb BN-12 (Diaclone) were added and incubated for 30 min. Finally, streptavidin coated donor beads (20 ug/ml) were added. After 1 hour of incubation plates were read on the Envison Alphascreen reader (PerkinElmer). All experiments were performed in duplicate.
For orientation: Bead proximity is the source of the signal in Alpha formats.

Where two headings read alike, the source gives them in different places.

B1: PMP17C4 (VHH)
VHH: AVQLVDSGGGLVQAGDSLRLSCAASGRTFSNYAMAWFRQAPGKEREFVAVISYAGGRTYYADSVKGRFTISRDNAKNTVYLQMNSLKPEDTAVYYCAAVDSPLIATHPRGYDYWGQGTQVTVSS
notes: Monovalent Nanobody
As usually defined, the koff is a measure of how fast the partners let go of each other. With B1, the “IC50, inhibition of proliferation of the murine hybridoma cell line B9 (B9 assay, cell proliferation normalized)” value in the assay with recombinant human IL6 [1] came to 64 pM. For the same molecule, in the assay with recombinant human IL6 [2], the off-rate constant (koff) amounted to 0.00137 s⁻¹.

B2: PMP21E7 (VHH)
VHH: AVQLVESGGGLVQAGGSLRLSSVVSGGTFSSYPIAWFRQPPGKEREFVAAISWRGGNTYYADSVKGRFTISRDNAKNTVYLQMNSLKPEDTAVYYSAAERAGVLLTKVPEGYDYWGQGTQVTVSS
notes: Monovalent Nanobody
For the molecule B2, in the assay with recombinant human IL6 [1], the “IC50, inhibition of proliferation of the murine hybridoma cell line B9 (B9 assay, cell proliferation normalized)” value amounted to 50 pM. Besides, the off-rate (koff) with recombinant human IL6 [2] was determined as 0.000772 s⁻¹.

B3: PMP6B6 (VHH)
VHH: QVQLVESAGGLVQPGGSLRLSCAASGIIFSINAMGWYRQAPGKRRELVADIMPYGSTEYADSVKGRFTISRDNAKNTVYLQMNSLKPEDTAVYYCHSYDPRGDDYWGQGTQVTVSS
notes: Monovalent Nanobody
The term IC50 denotes the concentration at which inhibition is half-maximal. B3: in the assay with recombinant human IL6 [3], the “IC50, inhibition of proliferation of the murine hybridoma cell line B9 (B9 assay, cell proliferation normalized)” value came out at 3 pM. Moreover, in the assay with recombinant human IL6 [2], the off-rate (koff) worked out at 0.000433 s⁻¹. The concentration for half-maximal inhibition (IC50) with recombinant human IL6 [4] was found to be 2 nM.

B4: PMP7G4 (VHH)
VHH: AVQLVESGGGLVQPGGSLRLSCAASGSIFSRLAMDWYRQAPGKQRELVASISRSGTTMAADSVKGRFTISRDNAENMVYLQMNSLKPEDTAVYVCMAFDGYSGSDYWGRGTQVTVSS
notes: Monovalent Nanobody
As to B4, the “IC50, inhibition of proliferation of the murine hybridoma cell line B9 (B9 assay, cell proliferation normalized)” value in the assay with recombinant human IL6 [3] was found to be 421 pM. For the same molecule, the koff with recombinant human IL6 [2] was 0.00208 s⁻¹. Besides, the IC50 with recombinant human IL6 [4] is 2.5 nM.

B5: PMP21H1 (VHH)
VHH: QVQLVESGGGLVQTGGSLRLSCAASGSTFSKHHATGWFRQAPGKEREFVAALNWSGGNTYYTDSVKGRFTISRDNAQNTVYLQMNSLKPEDTAVYYCAAGSYVFYFTVRDQYDYWGQGTQVTVSS
notes: Monovalent Nanobody
As to B5, in the assay with recombinant human IL6 [1], the “IC50, inhibition of proliferation of the murine hybridoma cell line B9 (B9 assay, cell proliferation normalized)” value is 2580 pM. Moreover, the koff with recombinant human IL6 [2] turned out to be 0.00124 s⁻¹.

B6: PMP6B12 (VHH)
VHH: AVQLVESGGGLVQPGGSLRLSCAASGFTLAYYAIGWFRQAPGKEREGVSCISSSVGTTYYSDSVKGRFTISRDNAKNTVYLQMNSLKPEDTAVYYCVRSSWFDCGVQGRDLGNEYDYRGQGTQVTVSS
notes: Monovalent Nanobody
Turning to B6, the “IC50, inhibition of proliferation of the murine hybridoma cell line B9 (B9 assay, cell proliferation normalized)” value with recombinant human IL6 [3] was 28 pM. Also, in the assay with recombinant human IL6 [2], the koff was 0.00027 s⁻¹.

B7: PMP7G9 (VHH)
VHH: QVQLVESGGGLVQPGGSLRLSCAASGFSLDYYGVGWFRQAPGKEREGVSCISSSDGDTYYADSVKGRFTISRDNAKNTVYLQMNSLKPEDTAVYYCATDLSDYGVCSRWPSPYDYWGQGTQVTVSS
notes: Monovalent Nanobody
Turning to B7, the “IC50, inhibition of proliferation of the murine hybridoma cell line B9 (B9 assay, cell proliferation normalized)” value in the assay with recombinant human IL6 [3] came out at 385 pM. Besides, in the assay with recombinant human IL6 [2], the koff stood at 0.00287 s⁻¹. In addition, the half-maximal inhibitory concentration (IC50) with recombinant human IL6 [4] is 3.4 nM.

B8: PMP7G5 (VHH)
VHH: QVKLEESGGGLVQPGGSLRLSCAASGSISRFNIMGWYRQAPGKQRELVADITNGGTTMYADSVKGRFTISRDNTKNTVYLQMNSLKPEDTAVYYCHTYYPTTGFDDWGQGAQVTVSS
notes: Monovalent Nanobody
Consider B8, for which the “IC50, inhibition of proliferation of the murine hybridoma cell line B9 (B9 assay, cell proliferation normalized)” value with recombinant human IL6 [3] was found to be 17 pM. Further, in the assay with recombinant human IL6 [2], the off-rate constant (koff) stood at 0.000412 s⁻¹. Further, in the assay with recombinant human IL6 [4], the 50% inhibitory concentration (IC50) stood at 6.1 nM.

B9: PMP13F12 (VHH)
VHH: AVQLVDSGGGLVQAGGSLRLSCAASGRTFSSSPMGWFRQAPGKEREFVAAISGRSGNTYYADSVKGRFTISRDNAKNTVYLQMNSLKPEDTAVYYCAAERVGLLLTVVAEGYDYWGQGTQVTVSS
notes: Monovalent Nanobody
Regarding B9, the “IC50, inhibition of proliferation of the murine hybridoma cell line B9 (B9 assay, cell proliferation normalized)” value with recombinant human IL6 [1] was found to be 8 pM. In addition, the koff in the assay with recombinant human IL6 [2] stood at 3.66e-05 s⁻¹.

B10: PMP6E10 (VHH)
VHH: QVKLEESGGGLVQAGGSLRLSCVVSGRTFSPYTIAWFRQAPGKEREFVTTIIGSDRSTDLDGDTYYADSVRGRFTISRNDAKNTVFLQMSSLKPEDTAVYYCALTGKGYVFTPNEYDYWGQGTQVTVSS
notes: Monovalent Nanobody
Regarding B10, the “IC50, inhibition of proliferation of the murine hybridoma cell line B9 (B9 assay, cell proliferation normalized)” value with recombinant human IL6 [3] came to 1070 pM. For the same molecule, the koff with recombinant human IL6 [2] stood at 0.000545 s⁻¹.
